Test results reported in publication PMC3411048 (The Journal of Biological Chemistry, 2012).
Square brackets hold non-standard residues; d marks the D form. Ends that are not written are not given here. pY = N[C@@H](Cc1ccc(OP(=O)(O)O)cc1)C(=O)O

What was measured:
[1] = test system: SHP2; conditions: ref [11], [36]; cited from earlier work
[2] = test system: N-SH2 domain of the phosphatase; conditions: phosphorylated tyrosine of N-terminal portion; ref [36]; cited from earlier work
[3] = Phosphopeptide array binding analysis; conditions: Two Sample Logo, peptide array, GST-tagged N-SH2 domain 1 μg/ml

Molecule	phosphopeptide positions mediating binding specificity (from pY) [3]	further results
GGGGDIT(pY)ADLNLPKGKKPAPQAAEPNNHTE(pY)ASIQTS [BTAM peptide]	–	activation of SHP2 [1]: previously demonstrated to activate SHP2
GGGGDIT[pY]ADLNLPKGKK [N-terminal portion of the BTAM peptide]	–	binding to N-SH2 domain [2]: known to bind specifically the N-SH2 domain of the phosphatase
wild-type domain: isolated wild-type N-SH2 domain (residues 6–103), polyHis- or GST-tagged (protein, left off: polyHis, end not stated, kept) WFHPNITGVEAENLLLTRGVDGSFLARPSKSNPGDFTLSVRRNGAVTHIKIQNTGDYYDLYGGEKFATLAELVQYYMEHHGQLKEKNGDVIELKYPLN	−2, −1, +1, +2, and +3 from the phosphotyrosine	–
N-SH2^Asp62 (protein, left off: polyHis, end not stated, kept) WFHPNITGVEAENLLLTRGVDGSFLARPSKSNPGDFTLSVRRNGAVTHIKIQNTGDDYDLYGGEKFATLAELVQYYMEHHGQLKEKNGDVIELKYPLN	Those positions were found to bear the highest information content	–
N-SH2^Cys63 (protein, left off: polyHis, end not stated, kept) WFHPNITGVEAENLLLTRGVDGSFLARPSKSNPGDFTLSVRRNGAVTHIKIQNTGDYCDLYGGEKFATLAELVQYYMEHHGQLKEKNGDVIELKYPLN	Those positions were found to bear the highest information content	–
N-SH2^Lys76 (protein, left off: GST, end not stated, kept) WFHPNITGVEAENLLLTRGVDGSFLARPSKSNPGDFTLSVRRNGAVTHIKIQNTGDYYDLYGGEKFATLAKLVQYYMEHHGQLKEKNGDVIELKYPLN	Those positions were found to bear the highest information content	–
